Test results from US20250298041A1.

How the values were obtained:
[1] = target: Recombinant LBD of GPIbα (residues 1-290), WT (human) (UniProt P07359); experiment: VWF:NCo ELISA, immobilised GPIbα-LBD, 250 nM 6D12; activity/antigen ratio
[2] = target: Recombinant LBD of GPIbα (residues 1-290), WT (human) (UniProt P07359); experiment: VWF:GPIbNab ELISA on LBD-WT with activating nanobodies; pdVWF as the reference
[3] = target: Recombinant LBD of GPIbα (residues 1-290), WT (human) (UniProt P07359); experiment: activity/antigen ratio; VWF:GPIbR ELISA on LBD-WT with 1.0 mg/mL ristocetin
[4] = target: Recombinant LBD of GPIbα (residues 1-290), WT (human) (UniProt P07359); experiment: activity/antigen ratio; VWF:GPIbNab ELISA on LBD-WT with nanobody 6C4, pdVWF as reference
[5] = target: Recombinant LBD of GPIbα (residues 1-290), WT (human) (UniProt P07359); experiment: activity/antigen ratio; VWF:GPIbNab ELISA on LBD-WT with nanobody 6C11, pdVWF as reference
[6] = target: Recombinant LBD of GPIbα (residues 1-290), WT (human) (UniProt P07359); experiment: activity/antigen ratio; VWF:GPIbNab ELISA on LBD-WT with nanobody 6D12, pdVWF as reference
[7] = target: Recombinant LBD of GPIbα (residues 1-290), WT (human) (UniProt P07359); experiment: VWF:GPIbNab ELISA on LBD-WT with 6C11; pdVWF as the reference
[8] = target: Recombinant LBD of GPIbα (residues 1-290), D235Y/M239V (human) (UniProt P07359); experiment: activity/antigen ratio; VWF:GPIbM ELISA on LBD-D235Y/M239V without activator
Chain of Recombinant LBD of GPIbα (residues 1-290), D235Y/M239V (human) (P07359 17-306 D251Y/M255V limits assumed, form in doubt): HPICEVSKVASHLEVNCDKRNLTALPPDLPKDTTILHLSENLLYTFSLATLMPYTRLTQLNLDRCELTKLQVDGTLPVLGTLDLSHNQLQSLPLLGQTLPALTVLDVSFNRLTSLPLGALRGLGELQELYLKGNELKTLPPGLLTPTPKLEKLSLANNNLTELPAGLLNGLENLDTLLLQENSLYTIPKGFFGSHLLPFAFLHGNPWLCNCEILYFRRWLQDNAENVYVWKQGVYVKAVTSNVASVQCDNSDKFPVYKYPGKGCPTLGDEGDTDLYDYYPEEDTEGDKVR

[9] = target: Recombinant LBD of GPIbα (residues 1-290), WT (human) (UniProt P07359); experiment: VWF:GPIbNab ELISA on LBD-WT with 6C4 or 6D12 (not said which gives which end); pdVWF as the reference

Chain of Recombinant LBD of GPIbα (residues 1-290), WT (human) (P07359 17-306 limits assumed, form in doubt): as the sequence (P07359 17-306 D251Y/M255V limits assumed, form in doubt) above, with Y235D, V239M counted along it

VWF:NCo/VWF:Ag ratio [1] | VWF:GPIbNab/VWF:Ag ratio [2] | VWF:GPIbR/VWF:Ag [3] | VWF:GPIbNab6C4/VWF:Ag [4] | VWF:GPIbNab6C11/VWF:Ag [5] | VWF:GPIbNab6D12/VWF:Ag [6] | VWF:GPIbNab/VWF:Ag ratio [7] | VWF:GPIbM/VWF:Ag [8] | VWF:GPIbNab/VWF:Ag ratio [9] | Substance
1.2 | – | – | – | – | – | – | – | – | Humate P (from UniProt P04275 764-2813) (ligand)
1 | 1 | 0.84 | 1.05 | 1.01 | 0.93 | – | – | – | Plasma-derived VWF (pdVWF, Alphanate) (from UniProt P04275 764-2813) (ligand)
1.9 | – | 1.25 | 1.31 | – | 1.26 | 2.26 | 2.1 | 1.2 to 1.4 | recombinant VWF (rVWF, Vonvendi) (from UniProt P04275 764-2813) (ligand)
